Each block holds one substance with its values, some of them ahead of it.
Experiments:
[1] = target: NanoBiT complemented heteromer of HiBit‐IL23R and LgBit‐IL12Rβ1 (UniProt Q5VWK5); experiment: FRET or BRET; NanoBiT BRET saturation: concentration titration of IL23-TMR for 1 h on living HEK293T cells expressing complemented NanoBiT receptors, with or without unlabelled IL-23; HBSS with 1 mg/ml BSA; one site total and nonspecific fit
[2] = target: Trimeric or multimeric species of HiBit‐IL23R, LgBit‐IL23R and IL12Rβ1 (UniProt Q5VWK5); experiment: as above
LgBit‐IL23R = LgBit‐IL23R (UniProt Q5VWK5); experiment: split reporter (BiFC, NanoBiT); complementary NanoBiT-tagged receptor constructs co-expressed in HEK293T cells; luminescence of living cells in HBSS with 1 mg/ml BSA after furimazine, plate reader; with or without 10 nM IL-23, with or without co-expressed untagged IL12Rβ1
LgBit‐IL12Rβ1 [3] = target: LgBit‐IL12Rβ1 (UniProt P42701); experiment: as above
LgBit‐VEGFR‐2 = LgBit‐VEGFR‐2 (UniProt P35968); experiment: split reporter (BiFC, NanoBiT); HiBit-IL23R (80 ng per well) co-transfected with LgBit-IL12Rβ1 or LgBit-VEGFR-2 (20 ng per well) in HEK293T cells; luminescence given as percent of that of the LgBit receptor alone with 50 nM purified HiBit; HBSS/0.1% BSA, 37°C
LgBit‐IL12Rβ1 [4] = target: LgBit‐IL12Rβ1 (UniProt P42701); experiment: as above
[5] = target: NanoBiT complemented heteromer of HiBit‐IL23R and LgBit‐IL12Rβ1 (UniProt Q5VWK5)

Kd [1]: 0.234 nM | Kd [2]: 0.0362 nM
Substance: Tetramethylrhodamine (TMR) tagged IL‐23 (from UniProt Q9NPF7 20-189; P29460 23-328) (ligand)

fold lower luminescence than the equivalent heteromeric condition (LgBit‐IL23R): 2.12 fold | fold stronger luminescence than the SmBit homomer (LgBit‐IL23R): 6.36 fold | fold luminescence over the mean of the receptor constructs expressed in isolation (LgBit‐IL12Rβ1 [3]): 73.3 fold | luminescence as percent of that of LgBit-VEGFR-2 with 50 nM purified HiBit (LgBit‐VEGFR‐2): 11.6% | luminescence as percent of that of LgBit-IL12Rβ1 with 50 nM purified HiBit (LgBit‐IL12Rβ1 [4]): 73%
Substance: HiBit‐IL23R (from UniProt Q5VWK5 24-629) (receptor)

fold lower luminescence than the equivalent heteromeric condition (LgBit‐IL23R): 2.18 fold | fold lower luminescence than HiBit-IL23R with LgBit-IL12Rβ1 (LgBit‐IL12Rβ1 [3]): 6.19 fold | fold luminescence over the mean of the receptor constructs expressed in isolation (LgBit‐IL12Rβ1 [3]): 10.3 fold
Substance: SmBit‐IL23R (from UniProt Q5VWK5 24-629) (receptor)

EC50 of STAT3 phosphorylation (phospho-STAT3 AlphaLISA), increasing concentrations of IL-23 on cells expressing HiBit-IL23R and LgBit-IL12Rβ1 [5]: 0.193 nM
Substance: Recombinant IL‐23 (from UniProt Q9NPF7 20-189; P29460 23-328) (ligand)

Reference: article PMC10953408
